Measurements from article PMC12416549 (2024).
Substitutions are numbered along the chain they refer to. Names and notes keep the numbering of the source. Blank lines part the entries; values can stand above or below the binder they belong to.

Target: T1, TNFR1 (Homo sapiens, UniProt P19438)
T1 chain: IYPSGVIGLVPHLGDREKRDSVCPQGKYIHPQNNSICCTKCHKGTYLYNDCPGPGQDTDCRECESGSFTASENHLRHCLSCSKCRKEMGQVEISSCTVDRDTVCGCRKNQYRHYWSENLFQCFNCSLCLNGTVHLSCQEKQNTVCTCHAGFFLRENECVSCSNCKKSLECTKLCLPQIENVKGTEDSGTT
Test: yeast display SC50

B3: E46M (designed binder)
chain: MTLQELLREEALRRAEAEAFRYALELLAEKFPEQKEYLLDLAEEIMSQIRSLSGVDVEDVRKFLDKEWAWVKELLAEHPAELAEVEAARAARLAELRAEVEAKVAA
apparent Kd (screen): 490 pM

B5: A17C (designed binder)
chain: B3 chain with A17C, M46E
apparent Kd (screen): 446 pM

B6: E18S (designed binder)
chain: B3 chain with E18S, M46E
apparent Kd (screen): 405 pM

B7: E44Q (designed binder)
chain: B3 chain with E44Q, M46E
apparent Kd (screen): 9410 pM

B10: E10P (designed binder)
chain: B3 chain with E10P, M46E
apparent Kd (screen): 12500 pM

B11: S51R (designed binder)
chain: B3 chain with M46E, S51R
apparent Kd (screen): 1050 pM

B12: R13Q (designed binder)
chain: B3 chain with R13Q, M46E
apparent Kd (screen): 142 pM

B13: A28V (designed binder)
chain: B3 chain with A28V, M46E
apparent Kd (screen): 2050 pM

B15: E46D (designed binder)
chain: B3 chain with M46D
apparent Kd (screen): 539 pM

B16: A17F (designed binder)
chain: B3 chain with A17F, M46E
apparent Kd (screen): 490 pM

B17: L6A (designed binder)
chain: B3 chain with L6A, M46E
apparent Kd (screen): 1540 pM

B20: E29Y (designed binder)
chain: B3 chain with E29Y, M46E
apparent Kd (screen): 539 pM

B21: L26S (designed binder)
chain: B3 chain with L26S, M46E
apparent Kd (screen): 490 pM

B23: A19Q (designed binder)
chain: B3 chain with A19Q, M46E
apparent Kd (screen): 446 pM

B28: R14C (designed binder)
chain: B3 chain with R14C, M46E
apparent Kd (screen): 539 pM

B29: E18L (designed binder)
chain: B3 chain with E18L, M46E
apparent Kd (screen): 539 pM

B30: A23N (designed binder)
chain: B3 chain with A23N, M46E
apparent Kd (screen): 405 pM

B31: L12E (designed binder)
chain: B3 chain with L12E, M46E
apparent Kd (screen): 1270 pM

B33: E10Y (designed binder)
chain: B3 chain with E10Y, M46E
apparent Kd (screen): 653 pM

B35: L7M (designed binder)
chain: B3 chain with L7M, M46E
apparent Kd (screen): 2480 pM

B37: Q34S (designed binder)
chain: B3 chain with Q34S, M46E
apparent Kd (screen): 490 pM

B40: A19G (designed binder)
chain: B3 chain with A19G, M46E
apparent Kd (screen): 593 pM

B41: E25H (designed binder)
chain: B3 chain with E25H, M46E
apparent Kd (screen): 718 pM

B42: R21W (designed binder)
chain: B3 chain with R21W, M46E
apparent Kd (screen): 490 pM

B43: E44F (designed binder)
chain: B3 chain with E44F, M46E
apparent Kd (screen): 16700 pM

B45: E46T (designed binder)
chain: B3 chain with M46T
apparent Kd (screen): 653 pM

B46: E5R (designed binder)
chain: B3 chain with E5R, M46E
apparent Kd (screen): 490 pM

B48: Q34M (designed binder)
chain: B3 chain with Q34M, M46E
apparent Kd (screen): 2730 pM

B49: L52C (designed binder)
chain: B3 chain with M46E, L52C
apparent Kd (screen): 2480 pM

B50: K35L (designed binder)
chain: B3 chain with K35L, M46E
apparent Kd (screen): 405 pM

B51: E43Y (designed binder)
chain: B3 chain with E43Y, M46E
apparent Kd (screen): 142 pM

B54: P32R (designed binder)
chain: B3 chain with P32R, M46E
apparent Kd (screen): 539 pM

B55: S51F (designed binder)
chain: B3 chain with M46E, S51F
apparent Kd (screen): 368 pM

B56: Y22E (designed binder)
chain: B3 chain with Y22E, M46E
apparent Kd (screen): 304 pM

B57: R14V (designed binder)
chain: B3 chain with R14V, M46E
apparent Kd (screen): 956 pM

B58: K35N (designed binder)
chain: B3 chain with K35N, M46E
apparent Kd (screen): 405 pM

B59: R14Q (designed binder)
chain: B3 chain with R14Q, M46E
apparent Kd (screen): 593 pM

Results, then the binder that gave them:

apparent Kd (screen): 490 pM
B1: E81I (designed binder)
chain: B3 chain with M46E, E81I

apparent Kd (screen): 593 pM
B2: K72F (designed binder)
chain: B3 chain with M46E, K72F

apparent Kd (screen): 539 pM
B4: L93Y (designed binder)
chain: B3 chain with M46E, L93Y

apparent Kd (screen): 6430 pM
B8: L52P (designed binder)
chain: B3 chain with M46E, L52P

apparent Kd (screen): 1270 pM
B9: F63V (designed binder)
chain: B3 chain with M46E, F63V

apparent Kd (screen): 593 pM
B14: K62A (designed binder)
chain: B3 chain with M46E, K62A

apparent Kd (screen): 490 pM
B18: E99H (designed binder)
chain: B3 chain with M46E, E99H

apparent Kd (screen): 653 pM
B19: V57S (designed binder)
chain: B3 chain with M46E, V57S

apparent Kd (screen): 790 pM
B22: A87Y (designed binder)
chain: B3 chain with M46E, A87Y

apparent Kd (screen): 718 pM
B24: K72C (designed binder)
chain: B3 chain with M46E, K72C

apparent Kd (screen): 718 pM
B25: A94M (designed binder)
chain: B3 chain with M46E, A94M

apparent Kd (screen): 539 pM
B26: R97K (designed binder)
chain: B3 chain with M46E, R97K

apparent Kd (screen): 12500 pM
B27: V71K (designed binder)
chain: B3 chain with M46E, V71K

apparent Kd (screen): 539 pM
B32: K62R (designed binder)
chain: B3 chain with M46E, K62R

apparent Kd (screen): 653 pM
B34: K62L (designed binder)
chain: B3 chain with M46E, K62L

apparent Kd (screen): 1050 pM
B36: G54Q (designed binder)
chain: B3 chain with M46E, G54Q

apparent Kd (screen): 539 pM
B38: P79N (designed binder)
chain: B3 chain with M46E, P79N

apparent Kd (screen): 653 pM
B39: E101M (designed binder)
chain: B3 chain with M46E, E101M

apparent Kd (screen): 790 pM
B44: K103E (designed binder)
chain: B3 chain with M46E, K103E

apparent Kd (screen): 1540 pM
B47: V57N (designed binder)
chain: B3 chain with M46E, V57N

apparent Kd (screen): 6430 pM
B52: D56P (designed binder)
chain: B3 chain with M46E, D56P

apparent Kd (screen): 653 pM
B53: A102G (designed binder)
chain: B3 chain with M46E, A102G
